The values below come from paper doi:10.1101/2024.10.18.618978v3.

The subject of the data set is NCCCNCCCCNCCCN
The data set can be described thus: colorimetric DTNB SSAT assay. Format: biochemical, Homo sapiens. The following applies: 0.25 mM AcCoA, pH 7.5, 37 °C.

Regarding SAT1 (Homo sapiens), the Km amounted to 73.10 ± 8.328 µM.

What is called Km is the substrate concentration at which the rate is half of its maximum.
